Data as given in publication PMC5727127, “H3K14ac is linked to methylation of H3K9 by the triple Tudor domain of SETDB1” (Nature Communications, 2017).
Values belong to the substance of their own block, whether it stands above or below them.

Tests used:
[1] = target: 3TD of SETDB1, W358A mutant, as used in ITC and crystals (UniProt Q15047); assay: ITC; 25 °C, VP-ITC, 20 mM Tris/HCl pH 7.0, 150 mM NaCl; protein 50 to 100 μM, ligand 1–2 mM; one-site binding model
[2] = target: H3K9me2/K14ac peptide in solution (ITC; crystal with W358A), limits not stated; assay: ITC; conditions: read off a plot
[3] = target: H3K9me1/K14ac peptide in solution (ITC); assay: ITC; conditions: read off a plot
[4] = target: H3K9me3/K14ac peptide in solution (ITC; crystals); assay: ITC; conditions: read off a plot

Substance: H3K9me2/K14ac peptide in solution (ITC; crystal with W358A), limits not stated
fold reduction of affinity against wildtype 3TD [1]: 18 fold

Substance: H3K9me3/K14ac peptide in solution (ITC; crystals)
fold reduction of binding against wildtype 3TD [1]: 2 fold

ratio to parent [2]: 1.1
ratio to parent [3]: 1.5
ratio to parent [4]: 0.18
Substance: triple Tudor domain (3TD) of SETDB1, wildtype, as used in solution (ITC, NMR, crystals) (from UniProt Q15047) Y268A
